The results in this text go back to article PMC10778174.

The target of the assay is BG505-SOSIP trimer Env (subtype A) (HIV-1 (subtype A, BG505)). Nature of the assay: SEC + other: negative-stain EM; gel-filtration and negative-stain EM of the purified BG505 SOSIP; conditions not given.

In the case of “BG505-SOSIP trimer Env (subtype A) (complex)”, the stoichiometry N worked out at 3.

What is called stoichiometry N is a count of units in the complex or per binding partner.
